Measurements from patent publication US20180355043A1.

What was measured:
[1] = biological target: DR4G99: Human HLA-DRA1*01:02/DRB1*01:01 ECD with collagen peptide CII_1236-1249 (human); experiment: MSD ECL; antigen coated; mAb 0.2 µg/ml
[2] = biological target: DR4G99: Human HLA-DRA1*01:02/DRB1*01:01 ECD with collagen peptide CII_1236-1249 (human); experiment: MSD ECL; antigen coated; protocol of Example 3

- ECL signal [1]: 15500 ECL
- ECL signal [2]: 697 ECL
B1: DR4B4 (antibody, V domains shown)
VH: QVQLKESGPGLVAPSQSLSITCTISGFSLTSYGVHWVRQPPGKGLEWLVVIWSDGSTTYNSALKSRLSISKDNSKSQVFLKMNSLQTDDTAIYYCASHYGSTLAFASWGHGTLVTVSA
VL: DIQMTQSPASLSASVGETVTIICRASVNIYSYLAWYQQKQGKSPQLLVYNAKILAEGVPSRFSGSGSGTQFSLKINSLQPEDFGSYYCQHHYGPFTFGSGTKLEIK
